In PMC9719863 (Molecular Metabolism, 2022):
*1 amine or outer side, *2 acyl side, *3 side chain or, on linkers, in order; H or OH if unused. Where no end group is shown, it is not given here. Side-chain parts run from the residue outwards. The star is where a group is joined. C18 diacid = O=C(O)CCCCCCCCCCCCCCCCC(=O)*; γGlu = O=C(O)[C@H](CCC(=O)[*:2])N[*:1]; Palmitoyl = CCCCCCCCCCCCCCCC(=O)*; AEEA = NCCOCCOCC(=O)O

T1: human GIP receptor (human) (UniProt P48546)
T1 sequence: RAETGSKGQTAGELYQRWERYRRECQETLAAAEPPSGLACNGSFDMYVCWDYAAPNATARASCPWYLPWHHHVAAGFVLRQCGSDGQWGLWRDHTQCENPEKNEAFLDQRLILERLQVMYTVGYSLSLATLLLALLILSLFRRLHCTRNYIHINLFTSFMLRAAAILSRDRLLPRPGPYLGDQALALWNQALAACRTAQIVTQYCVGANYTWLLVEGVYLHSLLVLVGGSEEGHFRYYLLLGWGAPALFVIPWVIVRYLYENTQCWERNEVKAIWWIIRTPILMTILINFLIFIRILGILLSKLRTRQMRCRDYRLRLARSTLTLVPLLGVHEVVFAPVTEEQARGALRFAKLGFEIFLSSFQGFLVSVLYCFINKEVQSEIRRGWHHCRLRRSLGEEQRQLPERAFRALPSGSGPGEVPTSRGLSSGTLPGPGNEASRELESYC

T2: mouse GIP receptor (mouse) (UniProt Q0P543)
T2 sequence: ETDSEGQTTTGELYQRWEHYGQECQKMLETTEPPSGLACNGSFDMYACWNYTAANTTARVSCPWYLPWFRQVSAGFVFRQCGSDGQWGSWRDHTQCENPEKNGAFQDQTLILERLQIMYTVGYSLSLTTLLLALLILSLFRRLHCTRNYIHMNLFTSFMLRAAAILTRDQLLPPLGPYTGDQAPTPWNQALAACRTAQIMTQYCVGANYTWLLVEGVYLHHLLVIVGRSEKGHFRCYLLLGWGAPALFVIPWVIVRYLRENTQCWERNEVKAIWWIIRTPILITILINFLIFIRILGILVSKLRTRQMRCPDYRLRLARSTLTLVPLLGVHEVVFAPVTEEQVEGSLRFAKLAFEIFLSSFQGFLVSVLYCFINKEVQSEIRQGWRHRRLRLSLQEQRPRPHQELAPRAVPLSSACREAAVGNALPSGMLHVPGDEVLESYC

T3: human GIP receptor (human, UniProt P48546 22-466)
T3 sequence: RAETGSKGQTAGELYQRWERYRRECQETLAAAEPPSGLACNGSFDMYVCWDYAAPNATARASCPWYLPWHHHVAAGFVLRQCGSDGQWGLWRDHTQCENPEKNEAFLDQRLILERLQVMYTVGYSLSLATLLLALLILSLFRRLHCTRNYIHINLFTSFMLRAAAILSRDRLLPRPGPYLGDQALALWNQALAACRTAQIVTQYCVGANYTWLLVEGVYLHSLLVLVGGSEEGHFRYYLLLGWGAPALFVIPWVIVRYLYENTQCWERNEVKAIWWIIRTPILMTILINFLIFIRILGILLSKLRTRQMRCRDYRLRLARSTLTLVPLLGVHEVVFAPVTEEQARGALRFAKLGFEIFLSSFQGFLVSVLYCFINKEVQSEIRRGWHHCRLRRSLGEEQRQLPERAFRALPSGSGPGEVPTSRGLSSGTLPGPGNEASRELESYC

T4: mouse GIP receptor (mouse, UniProt Q0P543 19-460)
T4 sequence: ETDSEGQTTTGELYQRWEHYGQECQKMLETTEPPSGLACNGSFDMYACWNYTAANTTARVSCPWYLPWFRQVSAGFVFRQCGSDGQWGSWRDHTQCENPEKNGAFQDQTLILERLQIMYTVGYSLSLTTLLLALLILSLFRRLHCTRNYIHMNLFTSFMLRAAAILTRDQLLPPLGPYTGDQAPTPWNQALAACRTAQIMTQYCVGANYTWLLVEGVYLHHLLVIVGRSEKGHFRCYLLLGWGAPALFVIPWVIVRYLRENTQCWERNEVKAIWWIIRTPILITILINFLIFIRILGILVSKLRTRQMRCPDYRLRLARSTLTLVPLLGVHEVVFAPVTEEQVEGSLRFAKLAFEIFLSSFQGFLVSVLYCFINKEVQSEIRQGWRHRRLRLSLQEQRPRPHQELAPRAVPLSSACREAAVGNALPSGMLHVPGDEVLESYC

B1: [L14, R18, E21] hGIP(3-30)-K11 (γE-C16) (peptide)
peptide: EGTFISDYK([γGlu-Palmitoyl])IALDKIRQQEFVNWLLAQK-NH2
modifications: N-terminus assumed
SMILES: CCCCCCCCCCCCCCCC(=O)N[C@@H](CCC(=O)NCCCC[C@H](NC(=O)[C@H](Cc1ccc(O)cc1)NC(=O)[C@H](CC(=O)O)NC(=O)[C@H](CO)NC(=O)[C@@H](NC(=O)[C@H](Cc1ccccc1)NC(=O)[C@@H](NC(=O)CNC(=O)[C@@H](N)CCC(=O)O)[C@@H](C)O)[C@@H](C)CC)C(=O)N[C@H](C(=O)N[C@@H](C)C(=O)N[C@@H](CC(C)C)C(=O)N[C@@H](CC(=O)O)C(=O)N[C@@H](CCCCN)C(=O)N[C@H](C(=O)N[C@@H](CCCNC(=N)N)C(=O)N[C@@H](CCC(N)=O)C(=O)N[C@@H](CCC(N)=O)C(=O)N[C@@H](CCC(=O)O)C(=O)N[C@@H](Cc1ccccc1)C(=O)N[C@H](C(=O)N[C@@H](CC(N)=O)C(=O)N[C@@H](Cc1c[nH]c2ccccc12)C(=O)N[C@@H](CC(C)C)C(=O)N[C@@H](CC(C)C)C(=O)N[C@@H](C)C(=O)N[C@@H](CCC(N)=O)C(=O)N[C@@H](CCCCN)C(N)=O)C(C)C)[C@@H](C)CC)[C@@H](C)CC)C(=O)O

Key:
[1] = molecular target: T1, human GIP receptor (human)
[2] = molecular target: T2, mouse GIP receptor (mouse)
human GIP receptor [3] = molecular target: T3, human GIP receptor; assay: cell-based or functional assay
mouse GIP receptor [4] = molecular target: T4, mouse GIP receptor; assay: cell-based or functional assay
human GIP receptor [5] = molecular target: T3, human GIP receptor; assay: radioligand binding
mouse GIP receptor [6] = molecular target: T4, mouse GIP receptor; assay: radioligand binding

Binder | maximal % inhibition of GIP-induced cAMP in BHK cells expressing hGIPR [1] [%] | maximal % inhibition of GIP-induced cAMP in BHK cells expressing mGIPR [2] [%] | maximal % inhibition of GIP-induced cAMP in BHK cells expressing hGIPR (human GIP receptor [3]) [%] | maximal % inhibition of GIP-induced cAMP in BHK cells expressing mGIPR (mouse GIP receptor [4]) [%] | IC50 (human GIP receptor [5]) [nM] | IC50 (mouse GIP receptor [6]) [nM]
EGTFISDYSIALDKIRQQEFVNWLLAQK-NH2 [[L14, R18, E21] hGIP(3-30) amide] | 72 | 86 | – | – | – | –
B1 | – | – | 100 | 97 | 0.36 | 2.1
Ac-TFISDYK(C18 diacid)IALDKIRQQEFVNWLLAQKG [[Nα-Ac, L14, R18, E21] hGIP(5-31)-K11 (-C18-OH)] | – | – | 100 | 100 | 0.9 | 5.4
Ac-TFISDYK([AEEA-AEEA-γGlu-C18 diacid])IALDKIRQQEFVNWLLAQKG [[Nα-Ac, L14, R18, E21] hGIP(5-31)-K11(OEG2-γE-C18-OH)] | – | – | 100 | 100 | 3.83 | 24.8
Ac-TFISDYK([γGlu-Palmitoyl])IALDKIRQQEFVNWLLAQKG [[Nα-Ac, L14, R18, E21] hGIP(5-31)-K11 (γE-C16)] | – | – | 100 | 100 | – | –
Ac-TFISDK([γGlu-Palmitoyl])SIALDKIRQQEFVNWLLAQKG [[Nα-Ac, L14, R18, E21] hGIP(5-31)-K10 (γE-C16)] | – | – | 100 | 100 | 0.21 | 1
TFISDYSIALDKIRQQEFVNWLLAQKG [[L14, R18, E21] hGIP(5-31)] | – | – | 81 | 93 | 1.8 | 18.7
FISDYSIALDKIRQQEFVNWLLAQKG [[L14, R18, E21] hGIP(6-31)] | – | – | 83 | 91 | 6.45 | 37.1
EGTFISDYSIAMDKIHQQDFVNWLLAQK-NH2 [hGIP(3-30) amide] | – | – | 81 | 73 | 1.55 | –
